Assay in all cases: BLI, LRP1 cluster III immobilised, analyte 2000-31.25 nM, kinetic fit 1:1
A general note: Biolayer interferometry detects binding as a change in optical thickness at a sensor tip.

The target of test [1] is T1, heme:Hx (plasma derived hemopexin complexed with heme) (UniProt P02790 24-462, limits assumed, heme bound, not covalent).
T1 construct: mature; Heme-loaded plasma-derived hemopexin, analyte in BLI; also called heme complexed plasma derived Hx; heme-hemopexin complex
T1 sequence (looked up): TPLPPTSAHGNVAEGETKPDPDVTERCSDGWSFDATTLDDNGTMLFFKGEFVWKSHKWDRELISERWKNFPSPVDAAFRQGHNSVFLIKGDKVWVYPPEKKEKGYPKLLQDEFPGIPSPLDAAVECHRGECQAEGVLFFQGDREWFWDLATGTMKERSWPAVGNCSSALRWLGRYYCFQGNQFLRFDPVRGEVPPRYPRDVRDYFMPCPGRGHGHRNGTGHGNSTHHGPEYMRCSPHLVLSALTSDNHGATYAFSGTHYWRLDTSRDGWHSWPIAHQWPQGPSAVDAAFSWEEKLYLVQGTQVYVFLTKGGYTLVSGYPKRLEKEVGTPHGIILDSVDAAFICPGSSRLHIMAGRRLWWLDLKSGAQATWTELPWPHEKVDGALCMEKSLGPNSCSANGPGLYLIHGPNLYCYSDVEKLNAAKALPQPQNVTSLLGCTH
As for the experimental part: (§1) Streptavidin pre-coated biosensors (Cat No: 18-5019, FortéBio) were used. […] A reference control was included in every experiment (sensor loaded with ligand without analyte). Data was acquired on an OctetRED96 (FortéBio) at 30° C. with the following settings:
(§2) Since the full length receptor is challenging to express recombiantly, we immobilized only a fragment of CD91/LRP1 (cluster III).

The target of test [2] is T2, HuHemopexin-HuHaptoglobin2FS(148-406)-8His (human, UniProt P02790 24-462; P00738 162-406).
T2 construct: Cleaved by co-expressed C1r-LP; the two chains are held by the inter-chain disulphide; Uncomplexed form (no heme, no Hb)
T2 sequence (P00738 other isoform, or with tags, fused parts or gaps): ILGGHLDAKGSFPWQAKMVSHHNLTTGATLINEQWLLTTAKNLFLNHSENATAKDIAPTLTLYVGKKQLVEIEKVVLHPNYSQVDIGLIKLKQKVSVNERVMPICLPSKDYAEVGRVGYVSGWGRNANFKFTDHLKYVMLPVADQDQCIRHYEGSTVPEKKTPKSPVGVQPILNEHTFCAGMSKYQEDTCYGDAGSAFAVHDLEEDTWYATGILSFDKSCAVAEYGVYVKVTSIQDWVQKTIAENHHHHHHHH
As for the experimental part:
as §1, §2

The next test addresses T3, heme:Hx-Hp complex (human, UniProt P02790 24-462; P00738 162-406, heme bound, not covalent).
T3 construct: The Hx-Hp fusion protein loaded with heme
The method, then: as §1, §2

T3 sequence (P00738 other isoform, or with tags, fused parts or gaps): as above

B1: biotinylated LRP1 Cluster III (receptor)
chain: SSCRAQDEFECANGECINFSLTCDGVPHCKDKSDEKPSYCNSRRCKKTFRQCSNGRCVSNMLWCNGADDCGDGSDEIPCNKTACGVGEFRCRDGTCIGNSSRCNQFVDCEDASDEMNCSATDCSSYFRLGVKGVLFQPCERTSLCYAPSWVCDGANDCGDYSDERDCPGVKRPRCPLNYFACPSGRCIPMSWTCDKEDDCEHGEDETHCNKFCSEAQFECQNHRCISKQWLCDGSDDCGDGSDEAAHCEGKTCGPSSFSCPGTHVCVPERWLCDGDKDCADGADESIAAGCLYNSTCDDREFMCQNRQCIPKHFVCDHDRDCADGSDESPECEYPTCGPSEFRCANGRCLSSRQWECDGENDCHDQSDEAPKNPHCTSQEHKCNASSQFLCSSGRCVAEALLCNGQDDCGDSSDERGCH
modifications: biotinylated
notes: Detected with an anti-His antibody, so it appears to carry a His tag; also called LRP1/CD91 domain 3; CD91/LRP1 (cluster III)
By Kd is commonly meant the concentration at which binding is half-saturated. Low readings indicate tighter binding, high ones weaker binding. For orientation: koff means a measure of how fast the partners let go of each other. A low value points to slow dissociation. For orientation: kon means the rate constant with which the complex forms. Higher therefore signals fast association. In test [1], B1 registered a Kd of 392 nM, a koff of 0.068 s⁻¹ and an on-rate (kon) of 170000 M⁻¹ s⁻¹. In test [2], this molecule came in with a Kd of 2700 nM, a koff of 0.039 s⁻¹ and a kon of 15000 M⁻¹ s⁻¹. In the test with heme:Hx-Hp complex, this molecule showed a Kd of 480 nM, a koff of 0.044 s⁻¹ and a kon of 91000 M⁻¹ s⁻¹.

The values are drawn from US20250304655A1 (CSL BEHRING, published 2025).
